Assay results taken from patent publication US7700107B2, “Synthetic immunogenic but non-amyloidogenic peptides homologous to amyloid β for induction of an immune response to amyloid β and amyloid deposits” (New York University, priority 2000, dated 2010).

How the values were obtained:
[1] = Thioflavin T fluorometric assay of amyloid fibril formation in vitro; format: physicochemical; conditions: incubation at 37° C., up to at least 15 days
Procedure: Studies of amyloid fibril formation in vitro can be performed using published protocols from the laboratory of the present inventors (Castaño et al., 1995; Wisniewski et al., 1991; Wisniewski et al., 1993 and Wisniewski et al., 1994). […] In vitro fibrillogenesis was evaluated by a fluorometric assay based on the fluorescence emission by thioflavine T, as previously described by the laboratory of the present inventors (Soto et al., 1998 and Jameson et al., 1998). Thioflavine T binds specifically to amyloid and this binding procedures a shift in its emission spectrum and a fluorescent enhancement proportional to the amount of amyloid formed (LeVine et al. 1993).
(§1) The experiments were performed as described in Example 1.

[2] = Secondary structure by circular dichroism (CD); format: physicochemical
Procedure: Secondary structure (α-helix, β-sheet, and random coil) of the peptides was evaluated by circular dichroism (CD) as described previously (Soto et al., 1998 and Soto et al., 1996). Results are expressed as molar ellipticity in units of deg cm^2 dmol^−1, and the data was analyzed by the Lincomb and CCA algorithms (Perczel et al., 1992) to obtain the percentages of different types of secondary structure.
The experimental procedure for circular dichroism is performed according to Golabek et al., (1996) and Soto et al. (1996 and 1998) as follows: CD spectra of solutions containing synthetic peptides (1-5 μM in 300 μl of 10 mM sodium phosphate, pH 7.2) is recorded in a Jasco J-720 spectropolarimeter at 25° C. using a 0.1 cm path-length cell with double distilled, deionized water and TFE (spectroscopy grade) being used as solvents. Calibration of the instrument is performed with an aqueous solution of d-(+)-10-camphorsulfonic acid. Spectra is recorded at 1 nm intervals over the wavelength range 180 to 260 nm and buffer spectra obtained under identical conditions is subtracted.

[3] = system: human neuroblastoma cell line (SK—N—SH); experiment: Neurotoxicity, MTT assay; format: cell-based; conditions: for Toxicity to SK—N—SH cells (MTT): 2 and 6 days, vs vehicle; for Aggregates visible under the microscope in culture wells: during the incubation period, 10-100 μM
Procedure: Briefly, cells were plated at 10,000 cells/100 μl culture medium per well in flat bottom, 96 well microtiter plates. The cells were allowed to attach to the plate overnight in an incubator (37° C., 5.0% CO2), and then 10 μl of freshly prepared peptide solution (in nanopure H2O) was added. […] Subsequent steps were as described in the assay protocol.
Data Analysis: The cell culture data was analyzed by one-way ANOVA, followed by a Dunnett's test for post hoc analysis (GraphPad Prism 3.0). An unbiased stereological image analysis system (Bioquant, R&M Biometrics Inc., Nashville, Tenn.) was used to determine the amyloid burden in 6E10 stained brain sections. The data for the amyloid burden and the levels of soluble Aβ within the brain were analyzed by a Student's t-test, two-tailed.
as §1
Data Analysis: The cell culture data was analyzed by one-way ANOVA, followed by a Newman Keuls' test for post hoc analysis (GraphPad Prism 3.0).

[4] = Solubility of freshly prepared peptide solution (in nanopure H2O); format: physicochemical; conditions: at 100 μM

| Substance | Fibril formation (thioflavin T) ([1]; Example 2, FIG. 5) | alpha (secondary structure by CD) ([2]; Time 0 hr) [%] | beta-sheet (secondary structure by CD) ([2]; Time 0 hr) [%] | random (secondary structure by CD) ([2]; Time 0 hr) [%] | alpha (secondary structure by CD) ([2]; Time 24 hr) [%] | beta-sheet (secondary structure by CD) ([2]; Time 24 hr) [%] | random (secondary structure by CD) ([2]; Time 24 hr) [%] | alpha (secondary structure by CD) ([2]; Time 96 hr) [%] | beta-sheet (secondary structure by CD) ([2]; Time 96 hr) [%] | random (secondary structure by CD) ([2]; Time 96 hr) [%] | Fibril formation (thioflavin T) ([1]; Example 1, FIG. 1) | Toxicity to SK—N—SH cells (MTT) ([3]; Example 1, FIGS. 2A and 2B) | Toxicity to SK—N—SH cells (MTT) ([3]; Example 2, FIGS. 6A and 6B) | Aggregates visible under the microscope in culture wells ([3]; Example 1) | Aggregates visible under the microscope in culture wells ([3]; Example 2) | Solubility [4] |
| --- | --- | --- | --- | --- | --- | --- | --- | --- | --- | --- | --- | --- | --- | --- | --- | --- |
| Aβ1-30-NH2(DD18,19): modified Aβ1-30, amidated, Asp at positions 18 and 19 (SEQ ID NO:13) | did not form fibrils | – | – | – | – | – | – | – | – | – | – | – | – | – | – | – |
| Aβ1-30-NH2(EE18,19): modified Aβ1-30, amidated, Glu at positions 18 and 19 (SEQ ID NO:12) | did not form fibrils | – | – | – | – | – | – | – | – | – | – | – | – | – | – | – |
| Aβ1-30-NH2: first thirty residues of Aβ1-42 (SEQ ID NO:1), amidated at the C-terminus; control peptide | gradually formed fibrils over time | 5 | 37 | 58 | 8 | 36 | 56 | 7 | 49 | 44 | gradually formed fibrils over time | – | – | – | – | – |
| Aβ1-40: amyloid β peptide, sequence 1-40; control peptide | gradually formed fibrils over time | – | – | – | – | – | – | – | – | – | – | toxic | toxic | – | – | – |
| Aβ1-42: amyloid β peptide, sequence 1-42; control peptide | – | 9 | 36 | 55 | 9 | 40 | 51 | 5 | 55 | 40 | – | toxic | toxic | aggregates were visible | aggregates were visible | only partially soluble |
